As a reminder, the Ki is the dissociation constant of the complex between target and ligand, obtained from inhibition or displacement. Broadly, the IC50 is the point on the concentration scale where inhibition reaches its midpoint.

For experiment [1], the target named is T1, human plasma Kallikrein (human, UniProt P03952 20-638, limits assumed).
T1 construct: also called hPK; human PK
Nature of the experiment: enzyme inhibition assay.

In experiment [2] the target is T1, human plasma Kallikrein. Kind of experiment: enzyme inhibition assay. The source holds these as a separate data set.
The target in experiment [3] is T1, human plasma Kallikrein. Nature of the experiment: enzyme inhibition assay. The source holds these as a separate data set.
Experiment [4] deals with T2, Rat plasma Kallikrein (rat, UniProt P14272 391-638, limits assumed).
T2 construct: domain: catalytic domain; also called rPK; rat PK
Nature of the experiment: enzyme inhibition assay.

Experiment [5] deals with T3, Monkey plasma Kallikrein (monkey (Macaca mulatta), UniProt A0A1D5Q7U7 391-638).
T3 construct: domain: catalytic domain; also called mPK
Nature of the experiment: enzyme inhibition assay.

Experiment [6] concerns the target T1, human plasma Kallikrein. Kind of experiment: enzyme inhibition assay. The source holds these as a separate data set.
Experiment [7] deals with T1, human plasma Kallikrein. Nature of the experiment: enzyme inhibition assay. This is another data set of the same source.
The target of experiment [8] is T2, Rat plasma Kallikrein. Kind of experiment: enzyme inhibition assay. The source holds these as a separate data set.
Experiment [9] has as its target T1, human plasma Kallikrein. Kind of experiment: enzyme inhibition assay. This is another data set of the same source.
Experiment [10] has as its target T1, human plasma Kallikrein. Kind of experiment: enzyme inhibition assay. The source holds these as a separate data set.
Experiment [11] addresses T1, human plasma Kallikrein. Nature of the experiment: enzyme inhibition assay. The source holds these as a separate data set.
In experiment [12] the target is T2, Rat plasma Kallikrein. Kind of experiment: enzyme inhibition assay; values relative, not absolute.

Like-named read-outs stand apart in the source and are kept apart here. Numbered stars: 1 amine (or outer) side, 2 acyl side, 3 side chain; on linkers, the order of the positions; unused ones are H or OH. Bridge positions count the residues as written; N and C are the ends. Square brackets hold non-standard residues; d marks the D form. Ends that are not written are not given here. Phe(4-guanidino) = N=C(N)Nc1ccc(C[C@H](N)C(=O)O)cc1; TBMB = c1c(C[*:1])cc(C[*:3])cc1C[*:2]; NMeR = CN[C@@H](CCCNC(=N)N)C(=O)O; hArg = N=C(N)NCCCC[C@H](N)C(=O)O; Pen = CC(C)(S)[C@H](N)C(=O)O; NMeS = CN[C@@H](CO)C(=O)O; Aze = O=C(O)[C@@H]1CCN1; Aib = CC(C)(N)C(=O)O; Sar = CNCC(=O)O

T1 sequence (P03952 20-638 limits assumed): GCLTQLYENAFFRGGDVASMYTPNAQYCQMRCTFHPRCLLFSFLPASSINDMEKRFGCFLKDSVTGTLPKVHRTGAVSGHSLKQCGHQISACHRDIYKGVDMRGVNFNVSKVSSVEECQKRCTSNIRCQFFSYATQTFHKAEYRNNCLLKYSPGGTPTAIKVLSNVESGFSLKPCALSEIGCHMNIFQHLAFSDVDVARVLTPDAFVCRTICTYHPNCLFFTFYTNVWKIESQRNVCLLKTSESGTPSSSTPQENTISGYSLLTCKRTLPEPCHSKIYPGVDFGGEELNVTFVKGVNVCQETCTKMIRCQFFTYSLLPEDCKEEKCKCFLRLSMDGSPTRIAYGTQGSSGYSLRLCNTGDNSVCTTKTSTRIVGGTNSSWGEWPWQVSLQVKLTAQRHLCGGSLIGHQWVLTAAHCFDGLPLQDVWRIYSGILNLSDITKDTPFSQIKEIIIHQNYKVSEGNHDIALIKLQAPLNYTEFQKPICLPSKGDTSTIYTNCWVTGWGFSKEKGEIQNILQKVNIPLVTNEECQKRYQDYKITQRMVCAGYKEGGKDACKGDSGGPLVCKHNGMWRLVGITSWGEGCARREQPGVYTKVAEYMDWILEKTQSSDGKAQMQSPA
T2 sequence (P14272 391-638 limits assumed): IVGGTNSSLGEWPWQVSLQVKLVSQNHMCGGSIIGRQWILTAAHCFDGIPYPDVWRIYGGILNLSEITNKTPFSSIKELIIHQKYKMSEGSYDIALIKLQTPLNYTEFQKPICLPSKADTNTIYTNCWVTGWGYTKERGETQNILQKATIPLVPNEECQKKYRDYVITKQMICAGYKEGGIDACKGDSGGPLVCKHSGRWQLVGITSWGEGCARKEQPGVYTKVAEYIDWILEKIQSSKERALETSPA
T3 sequence (A0A1D5Q7U7 entry or part of it): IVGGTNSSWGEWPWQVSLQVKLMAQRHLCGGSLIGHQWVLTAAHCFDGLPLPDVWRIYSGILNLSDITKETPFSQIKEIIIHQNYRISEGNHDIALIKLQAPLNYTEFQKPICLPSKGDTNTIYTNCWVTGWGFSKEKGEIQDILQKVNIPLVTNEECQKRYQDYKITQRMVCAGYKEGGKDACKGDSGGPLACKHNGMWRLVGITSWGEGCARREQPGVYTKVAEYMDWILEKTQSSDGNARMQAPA

B1: Ac-(06-34-18) Aze3 4GuanPhe5 (peptide)
peptide: Ac-CSW[Aze]A[Phe(4-guanidino)]CLHQDLC-NH2
modifications: linker 1-7-13 via TBMB
SMILES: CC(=O)N[C@H]1CSCc2cc3cc(c2)CSC[C@H](NC(=O)[C@H](Cc2ccc(NC(=N)N)cc2)NC(=O)[C@H](C)NC(=O)[C@@H]2CCN2C(=O)[C@H](Cc2c[nH]c4ccccc24)NC(=O)[C@H](CO)NC1=O)C(=O)N[C@@H](CC(C)C)C(=O)N[C@@H](Cc1c[nH]cn1)C(=O)N[C@@H](CCC(N)=O)C(=O)N[C@@H](CC(=O)O)C(=O)N[C@@H](CC(C)C)C(=O)N[C@H](C(N)=O)CSC3
Consider B1, for which the Ki in experiment [1] is 0.17 nM.

B2: Ac-(06-34-18) Cys2ToPen2 (peptide)
peptide: Ac-CSWPAR[Pen]LHQDLC-NH2
modifications: linker 1-7-13 via TBMB
SMILES: CC(=O)N[C@H]1CSCc2cc3cc(c2)CSC(C)(C)[C@H](NC(=O)[C@H](CCCNC(=N)N)NC(=O)[C@H](C)NC(=O)[C@@H]2CCCN2C(=O)[C@H](Cc2c[nH]c4ccccc24)NC(=O)[C@H](CO)NC1=O)C(=O)N[C@@H](CC(C)C)C(=O)N[C@@H](Cc1c[nH]cn1)C(=O)N[C@@H](CCC(N)=O)C(=O)N[C@@H](CC(=O)O)C(=O)N[C@@H](CC(C)C)C(=O)N[C@H](C(N)=O)CSC3
For B2, the inhibitory constant (Ki) in [2] was determined as 2160 nM. AC[Sar]WPARC[Sar]HQDLCA (linker 2-8-14 via TBMB; not fully specified (N-terminus, C-terminus), also called AC N-MeGWPARCN-MeGHQDLCA) [06-34-03 - N-MeGly1,6] returned a Ki in experiment [3] of 24.8 nM. For ACRWPARCTHQNYCA (linker 2-8-14 via TBMB; not fully specified (N-terminus, C-terminus), also called PK106) [06-54 (2A2)], the Ki in [4] worked out at 7 nM; in experiment [5], 6 nM; in [6], 5 nM; in experiment [7], 0.49 nM.

B3: Ac-(06-34-18) Aze3 HomoArg5 (peptide)
peptide: Ac-CSW[Aze]A[hArg]CLHQDLC-NH2
modifications: linker 1-7-13 via TBMB
SMILES: CC(=O)N[C@H]1CSCc2cc3cc(c2)CSC[C@H](NC(=O)[C@H](CCCCNC(=N)N)NC(=O)[C@H](C)NC(=O)[C@@H]2CCN2C(=O)[C@H](Cc2c[nH]c4ccccc24)NC(=O)[C@H](CO)NC1=O)C(=O)N[C@@H](CC(C)C)C(=O)N[C@@H](Cc1c[nH]cn1)C(=O)N[C@@H](CCC(N)=O)C(=O)N[C@@H](CC(=O)O)C(=O)N[C@@H](CC(C)C)C(=O)N[C@H](C(N)=O)CSC3
In the case of B3, in experiment [1], the affinity corresponds to a Ki of 0.14 nM.

ACAWPARCAHQDLCA (linker 2-8-14 via TBMB; not fully specified (N-terminus, C-terminus), also called R1A/V6A) [06-34-03 - Ala1,6] came in with a Ki in experiment [3] of 0.147 nM.

For the molecule ACSWPARCLHQDLCA (linker 2-8-14 via TBMB; not fully specified (N-terminus, C-terminus)) [06-34-18 (01 + 05)], the IC50 worked out at 0.56 nM in experiment [8] and 0.07 nM in [9]. In [3], this molecule showed a Ki of 0.04 nM.

B4: Ac-(06-34-18) Aze3 NMeArg5 (peptide)
peptide: Ac-CSW[Aze]A[NMeR]CLHQDLC-NH2
modifications: linker 1-7-13 via TBMB
SMILES: CC(=O)N[C@H]1CSCc2cc3cc(c2)CSC[C@H](NC(=O)[C@H](CCCNC(=N)N)N(C)C(=O)[C@H](C)NC(=O)[C@@H]2CCN2C(=O)[C@H](Cc2c[nH]c4ccccc24)NC(=O)[C@H](CO)NC1=O)C(=O)N[C@@H](CC(C)C)C(=O)N[C@@H](Cc1c[nH]cn1)C(=O)N[C@@H](CCC(N)=O)C(=O)N[C@@H](CC(=O)O)C(=O)N[C@@H](CC(C)C)C(=O)N[C@H](C(N)=O)CSC3
Molecule B4 had a Ki in experiment [1] of 1.3 nM. AC[NMeS]WPARCLHQDLCA (linker 2-8-14 via TBMB; not fully specified (N-terminus, C-terminus)) [06-34-18 -N-MeSer1]: the “fold loss in potency against the parent” value in experiment [10] is 10 fold. Besides, the Ki in experiment [3] is 0.56 nM.

B5: Ac-(06-34-18) FPAR (peptide)
peptide: Ac-CSFPARCLHQDLC-NH2
modifications: linker 1-7-13 via TBMB
SMILES: CC(=O)N[C@H]1CSCc2cc3cc(c2)CSC[C@H](NC(=O)[C@H](CCCNC(=N)N)NC(=O)[C@H](C)NC(=O)[C@@H]2CCCN2C(=O)[C@H](Cc2ccccc2)NC(=O)[C@H](CO)NC1=O)C(=O)N[C@@H](CC(C)C)C(=O)N[C@@H](Cc1c[nH]cn1)C(=O)N[C@@H](CCC(N)=O)C(=O)N[C@@H](CC(=O)O)C(=O)N[C@@H](CC(C)C)C(=O)N[C@H](C(N)=O)CSC3
As for B5, in experiment [10], the “fold change in Ki against WPAR parent” value was determined as 40 fold. The molecule also returned an inhibitory constant (Ki) in [11] of 6.28 nM.

B6: Ac-(06-34-18) WPSR (peptide)
peptide: Ac-CSWPSRCLHQDLC-NH2
modifications: linker 1-7-13 via TBMB
SMILES: CC(=O)N[C@H]1CSCc2cc3cc(c2)CSC[C@H](NC(=O)[C@H](CCCNC(=N)N)NC(=O)[C@H](CO)NC(=O)[C@@H]2CCCN2C(=O)[C@H](Cc2c[nH]c4ccccc24)NC(=O)[C@H](CO)NC1=O)C(=O)N[C@@H](CC(C)C)C(=O)N[C@@H](Cc1c[nH]cn1)C(=O)N[C@@H](CCC(N)=O)C(=O)N[C@@H](CC(=O)O)C(=O)N[C@@H](CC(C)C)C(=O)N[C@H](C(N)=O)CSC3
In the case of B6, the Ki in experiment [11] amounted to 0.44 nM.

B7: Ac-(06-34-18) WPYR (peptide)
peptide: Ac-CSWPYRCLHQDLC-NH2
modifications: linker 1-7-13 via TBMB
SMILES: CC(=O)N[C@H]1CSCc2cc3cc(c2)CSC[C@H](NC(=O)[C@H](CCCNC(=N)N)NC(=O)[C@H](Cc2ccc(O)cc2)NC(=O)[C@@H]2CCCN2C(=O)[C@H](Cc2c[nH]c4ccccc24)NC(=O)[C@H](CO)NC1=O)C(=O)N[C@@H](CC(C)C)C(=O)N[C@@H](Cc1c[nH]cn1)C(=O)N[C@@H](CCC(N)=O)C(=O)N[C@@H](CC(=O)O)C(=O)N[C@@H](CC(C)C)C(=O)N[C@H](C(N)=O)CSC3
As to B7, affinity in experiment [11] was put at a Ki of 0.41 nM.

In experiment [12], Ac-CSWPA[hArg]CLHQDLC-NH2 (linker 1-7-13 via TBMB) [Ac-(06-34-18) HomoArg5] showed an IC50 of 64 nM.

B8: Ac-(06-34-18) Aib4 (peptide)
peptide: Ac-CSWP[Aib]RCLHQDLC-NH2
modifications: linker 1-7-13 via TBMB
SMILES: CC(=O)N[C@H]1CSCc2cc3cc(c2)CSC[C@H](NC(=O)[C@H](CCCNC(=N)N)NC(=O)C(C)(C)NC(=O)[C@@H]2CCCN2C(=O)[C@H](Cc2c[nH]c4ccccc24)NC(=O)[C@H](CO)NC1=O)C(=O)N[C@@H](CC(C)C)C(=O)N[C@@H](Cc1c[nH]cn1)C(=O)N[C@@H](CCC(N)=O)C(=O)N[C@@H](CC(=O)O)C(=O)N[C@@H](CC(C)C)C(=O)N[C@H](C(N)=O)CSC3
B8 returned a Ki in experiment [2] of 289 nM.

The values are drawn from US10800813 (Bicycle, dated 2020).
